# Data as given in the supplement of paper PMC10126150.
# ± gives the standard deviation of the averaged measurements.
# Tested on: ATP
# Assay: switch fluorescence ratio, 500 uM ATP over buffer (Cy3 cluster intensity, sum of 5 cycles each) (fold (ratio)); higher = stronger signal-on switching upon ATP binding; sequences stand for … in TCGTCGGCAGCGTCAGATGTGTATAAGAGACAGTTTTTTTTTTTTTTTTTTTTTTTTT…TC
# Settings: aptamer strand: ATP DNA aptamer (quencher-CACCTGGGGGAGTATTGCGGAGGAAGG + anchor), 100 nM annealed; ATP concentration: 500 uM
# How it was run: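 Five buffer/ATP imaging cycles were run on Cy3-labelled switching-strand clusters on a modified Illumina MiSeq flow-cell, with NaOH stripping and re-annealing between cycles. In each cycle, clusters annealed to 100 nM quencher-labelled ATP aptamer were imaged in selection buffer, then after 15 min with 500 uM ATP at 22 °C. Per cluster, the fluorescence ratio is summed target-cycle over summed buffer-cycle Cy3 intensity, averaged per switch-domain sequence. Only clusters within 100-1000 RFU were kept.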
# 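Note: ATP exposure 15 min at 22 °C before imaging.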
row,Sequence,switch fluorescence ratio
1,GTGTCCCTC,1.01 ± 0.04
2,GTGTCCTTGG,1.006 ± 0.0084
3,GTGTCGCGGG,0.962 ± 0.013
4,GTGTCGTTTG,1 ± 0.032
5,GTGTCTGTTG,0.981 ± 0.02
6,GTGTGACAAC,0.975 ± 0.013
7,GTGTGCCGCA,0.977 ± 0.031
8,GTGTGCGGGG,1.06 ± 0.079
9,GTGTGGAGGA,1.03 ± 0.037
10,GTGTGGCACT,0.9989 ± 0.0056
11,GTGTGGCGGG,0.996 ± 0.011
12,GTGTGGCTGG,0.9398 ± 0.0088
13,GTGTGGGAGC,1 ± 0.06
14,GTGTGGGTTC,0.982 ± 0.012
15,GTGTGTGTAA,1.01 ± 0.045
16,GTGTGTTTGT,0.955 ± 0.038
17,GTGTTAAAAT,1.01 ± 0.018
18,GTGTTACTTT,0.99 ± 0.017
19,GTGTTAGAT,0.964 ± 0.043
20,GTGTTAGGGT,0.984 ± 0.035
21,GTGTTATGTG,0.9504 ± 0.0021
22,GTGTTCGCTT,0.984 ± 0.0099
23,GTGTTCGGGG,0.998 ± 0.021
24,GTGTTCTCGC,0.999 ± 0.05
25,GTGTTGGTAT,1.01 ± 0.034

row,Sequence,switch fluorescence ratio
1,GTGTTGTTGC,0.981 ± 0.0012
2,GTGTTGTTGT,0.998 ± 0.016
3,GTGTTTAAGT,0.962 ± 0.014
4,GTGTTTAATT,1.03 ± 0.035
5,GTGTTTAGGA,1.02 ± 0.018
6,GTGTTTAGGG,0.999 ± 0.021
7,GTGTTTGGCT,0.972 ± 0.024
8,GTGTTTGTCA,0.981 ± 0.017
9,GTTAAAAGGG,1.01 ± 0.028
10,GTTAAAGATA,0.9918 ± 0.00016
11,GTTAAATGGT,1 ± 0.031
12,GTTAACAGTT,0.989 ± 0.027
13,GTTAACCAGC,1.05 ± 0.016
14,GTTAACGGGT,0.997 ± 0.02
15,GTTAACTAAT,1.57 ± 0.85
16,GTTAAGGGGA,0.999 ± 0.021
17,GTTAATACCC,1.04 ± 0.014
18,GTTAATAGTG,0.988 ± 0.021
19,GTTAATCTTA,0.9873 ± 0.0036
20,GTTAATTAGC,1.03 ± 0.041
21,GTTACAGAGA,1.003 ± 0.0011
22,GTTACGTTAT,1.13 ± 0.078
23,GTTACTGGCC,1.01 ± 0.0068
24,GTTACTTAGC,1.04 ± 0.082
25,GTTAGAAGGG,0.978 ± 0.023

row,Sequence,switch fluorescence ratio
1,GTTAGAGGGA,0.99589 ± 4.1e-05
2,GTTAGCAAGG,1.08 ± 0.018
3,GTTAGCAGGG,1.01 ± 0.044
4,GTTAGCTAAT,0.987 ± 0.034
5,GTTAGGGGCA,1 ± 0.072
6,GTTAGGGTAT,0.9975 ± 0.004
7,GTTAGGTGGC,0.931 ± 0.021
8,GTTAGTACGG,0.9819 ± 0.0036
9,GTTAGTAGCT,0.97 ± 0.013
10,GTTAGTGCGA,1.01 ± 0.037
11,GTTAGTGGCT,0.9906 ± 0.0034
12,GTTAGTTAGG,0.976 ± 0.025
13,GTTATAATCC,1.037 ± 0.0076
14,GTTATACGGT,0.997 ± 0.057
15,GTTATAGAGG,1.03 ± 0.042
16,GTTATAGCGG,0.976 ± 0.018
17,GTTATAGCTA,0.9859 ± 0.0061
18,GTTATATCGC,0.985 ± 0.03
19,GTTATATGGT,1.02 ± 0.021
20,GTTATATTGA,0.999 ± 0.026
21,GTTATATTGT,0.9943 ± 0.0096
22,GTTATCATTA,1.02 ± 0.03
23,GTTATCGAGG,1.02 ± 0.011
24,GTTATCTCTT,0.996 ± 0.033
25,GTTATGTCTG,1.03 ± 0.065

row,Sequence,switch fluorescence ratio
1,GTTATGTTTG,1.01 ± 0.045
2,GTTATTAGTG,0.993 ± 0.016
3,GTTATTCGGT,0.991 ± 0.023
4,GTTATTGCGT,0.982 ± 0.05
5,GTTATTGGGT,0.988 ± 0.046
6,GTTATTTAGT,0.967 ± 0.05
7,GTTATTTGGA,0.971 ± 0.069
8,GTTATTTGGT,0.992 ± 0.04
9,GTTATTTTTT,0.987 ± 0.028
10,GTTCAAATGA,0.987 ± 0.017
11,GTTCAAGGAA,0.9937 ± 0.0036
12,GTTCCGGGGA,1.02 ± 0.016
13,GTTCCGGTCG,1.07 ± 0.098
14,GTTCCTGGGG,1.03 ± 0.019
15,GTTCCTTTTT,1.02 ± 0.064
16,GTTCGTGATA,1.05 ± 0.043
17,GTTCTAGATT,1.03 ± 0.067
18,GTTCTAGGAG,1 ± 0.019
19,GTTCTAGGTT,0.9961 ± 0.0044
20,GTTCTATGC,1 ± 0.079
21,GTTCTCAGAT,0.982 ± 0.013
22,GTTCTGGGCT,0.973 ± 0.016
23,GTTCTGGGGC,0.986 ± 0.028
24,GTTGAAACGT,1.06 ± 0.023
25,GTTGAAGG,0.9986 ± 0.0032

row,Sequence,switch fluorescence ratio
1,GTTGAATGGG,0.977 ± 0.011
2,GTTGAGAGGA,0.9636 ± 0.0018
3,GTTGAGAGTT,1.01 ± 0.015
4,GTTGAGGAGG,0.9891 ± 0.0086
5,GTTGATCCTT,0.9987 ± 0.0075
6,GTTGATCTGG,1.01 ± 0.011
7,GTTGATTAGC,0.981 ± 0.077
8,GTTGATTATG,0.995 ± 0.014
9,GTTGCAGCTG,0.962 ± 0.037
10,GTTGCAGTTA,0.9986 ± 0.0029
11,GTTGCATTAT,1.028 ± 0.0041
12,GTTGCCAAAG,0.9726 ± 0.0022
13,GTTGCGAATT,0.971 ± 0.038
14,GTTGCGCACA,1.024 ± 0.0097
15,GTTGCTGTTT,1 ± 0.048
16,GTTGGAAACA,0.945 ± 0.01
17,GTTGGAAGCA,1.1 ± 0.18
18,GTTGGAATGG,1.01 ± 0.014
19,GTTGGAGGGA,1.01 ± 0.032
20,GTTGGAGTGT,0.9511 ± 0.0068
21,GTTGGATAGG,1.01 ± 0.016
22,GTTGGATGGA,0.9966 ± 0.0062
23,GTTGGCAGGC,1.03 ± 0.028
24,GTTGGCATTT,1.05 ± 0.092
25,GTTGGCGGGA,1.02 ± 0.042

row,Sequence,switch fluorescence ratio
1,GTTGGGACTG,1 ± 0.055
2,GTTGGGAGCC,0.99 ± 0.01
3,GTTGGGATAA,1 ± 0.038
4,GTTGGGCCCA,1 ± 0.016
5,GTTGGGCCGT,0.987 ± 0.038
6,GTTGGGCTAT,0.9916 ± 0.0024
7,GTTGGGGGAC,1.09 ± 0.086
8,GTTGGGGGCA,0.968 ± 0.049
9,GTTGGGGTAT,1.06 ± 0.11
10,GTTGGGGTCA,0.988 ± 0.011
11,GTTGGGGTCG,0.998 ± 0.037
12,GTTGGGGTGA,1.05 ± 0.02
13,GTTGGGTATC,0.998 ± 0.023
14,GTTGGTCTAC,1.04 ± 0.018
15,GTTGGTGCGG,0.999 ± 0.034
16,GTTGGTGGCT,0.9581 ± 0.0026
17,GTTGGTGGGG,0.957 ± 0.035
18,GTTGTAATAG,1.09 ± 0.031
19,GTTGTACTGG,0.944 ± 0.03
20,GTTGTACTTG,0.988 ± 0.005
21,GTTGTAGGTG,1.057 ± 0.0014
22,GTTGTAGTCT,1.02 ± 0.023
23,GTTGTAGTTG,0.98387 ± 0.00037
24,GTTGTATCGG,0.991 ± 0.021
25,GTTGTCAGTA,0.9836 ± 0.005

row,Sequence,switch fluorescence ratio
1,GTTGTCATGC,1.02 ± 0.033
2,GTTGTCGCTT,0.9811 ± 0.0057
3,GTTGTCGTAT,0.974 ± 0.051
4,GTTGTCTCCA,0.985 ± 0.015
5,GTTGTGCGTA,0.994 ± 0.031
6,GTTGTGGCGG,0.97 ± 0.021
7,GTTGTGGGCG,0.977 ± 0.12
8,GTTGTGGTTC,0.96755 ± 0.00092
9,GTTGTGTATT,0.998 ± 0.022
10,GTTGTTAGGA,0.961 ± 0.02
11,GTTGTTATGT,1.01 ± 0.015
12,GTTGTTATTG,1.01 ± 0.021
13,GTTGTTGAAG,1.009 ± 0.0011
14,GTTGTTGCTA,0.99 ± 0.034
15,GTTGTTTGAT,0.997 ± 0.052
16,GTTGTTTGTA,0.971 ± 0.021
17,GTTGTTTGTT,0.978 ± 0.015
18,GTTGTTTTGA,0.994 ± 0.022
19,GTTTAAAACG,0.9961 ± 0.0073
20,GTTTAAAATG,1 ± 0.024
21,GTTTAAACGT,1.02 ± 0.021
22,GTTTAATATT,0.99 ± 0.026
23,GTTTAATGGG,0.999 ± 0.037
24,GTTTAATTTG,1 ± 0.025
25,GTTTACGTGG,1.01 ± 0.015

row,Sequence,switch fluorescence ratio
1,GTTTACTCTT,0.996 ± 0.025
2,GTTTAGAGCG,1.026 ± 0.01
3,GTTTAGGGTA,1.01 ± 0.051
4,GTTTATAGGT,0.9815 ± 0.0077
5,GTTTATATAT,1.03 ± 0.035
6,GTTTATCATT,0.982 ± 0.011
7,GTTTATCCGT,0.996 ± 0.055
8,GTTTATGTTA,1.017 ± 0.0018
9,GTTTCAAACG,0.971 ± 0.025
10,GTTTCAATGC,1.31 ± 0.1
11,GTTTCCAGGT,1.16 ± 0.017
12,GTTTCCATGG,0.973 ± 0.033
13,GTTTCGCCGT,1.046 ± 0.0054
14,GTTTCGGTTG,0.972 ± 0.05
15,GTTTCTGGTG,1.13 ± 0.064
16,GTTTCTTGGG,0.995 ± 0.056
17,GTTTCTTTAC,0.988 ± 0.058
18,GTTTCTTTGT,0.986 ± 0.049
19,GTTTGCAAGT,1.011 ± 0.0072
20,GTTTGCCCAA,0.987 ± 0.037
21,GTTTGCCCTT,1.06 ± 0.1
22,GTTTGCCTCT,0.995 ± 0.012
23,GTTTGCGCTT,1.01 ± 0.021
24,GTTTGCGGCA,1.01 ± 0.027
25,GTTTGGGAAA,0.988 ± 0.036
